Source: the supplement of paper PMC11246515
± gives the standard deviation of the averaged measurements.

Experiment: total protein half-life in vivo (active degradation + dilution); higher = more stable protein
[1] = E. coli NCM3722 delta-clpP delta-lon delta-hslV, growth: N-lim chemostat, doubling time 6 h
[2] = E. coli NCM3722 delta-clpP, growth: N-lim chemostat, doubling time 6 h
[3] = E. coli NCM3722 delta-hslV, growth: N-lim chemostat, doubling time 6 h
[4] = E. coli NCM3722 delta-lon, growth: N-lim chemostat, doubling time 6 h
[5] = E. coli NCM3722 delta-smpB, growth: N-lim chemostat, doubling time 6 h
[6] = wild type E. coli NCM3722, growth: C-lim chemostat, doubling time 3 h
[7] = wild type E. coli NCM3722, growth: C-lim chemostat, doubling time 6 h
[8] = wild type E. coli NCM3722, growth: C-lim chemostat, doubling time 12 h
[9] = wild type E. coli NCM3722, growth: N-lim chemostat, doubling time 6 h
[10] = wild type E. coli NCM3722, growth: N-lim chemostat, doubling time 12 h
[11] = wild type E. coli NCM3722, growth: P-lim chemostat, doubling time 6 h
[12] = wild type E. coli NCM3722, growth: P-lim chemostat, doubling time 12 h

| Sequence | total protein half-life in vivo [1] [h] | total protein half-life in vivo [2] [h] | total protein half-life in vivo [3] [h] | total protein half-life in vivo [4] [h] | total protein half-life in vivo [5] [h] | total protein half-life in vivo [6] [h] | total protein half-life in vivo [7] [h] | total protein half-life in vivo [8] [h] | total protein half-life in vivo [9] [h] | total protein half-life in vivo [10] [h] | total protein half-life in vivo [11] [h] | total protein half-life in vivo [12] [h] |
| --- | --- | --- | --- | --- | --- | --- | --- | --- | --- | --- | --- | --- |
| MALLNVDKLSVHFGDESAPFRAVDRISYSVKQGEVVGIVGESGSGKSVSSLAIMGLIDYPGRVMAEKLEFNGQDLQRISEKERRNLVGAEVAMIFQDPMTSLNPCYTVGFQIMEAIKVHQGGNKSTRRQRAIDLLNQVGIPDPASRLDVYPHQLSGGMSQRVMIAMAIACRPKLLIADEPTTALDVTIQAQIIELLLELQQKENMALVLITHDLALVAEAAHKIIVMYAGQVVETGDAHAIFHAPRHPYTQALLRALPEFAQDKERLASLPGVVPGKYDRPNGCLLNPRCPYATDRCRAEEPALNMLADGRQSKCHYPLDDAGRPTL [P0AAG0] | 6.72 ± 1.2 | 6.26 ± 0.28 | 6.21 ± 0.75 | 7.31 ± 0.78 | 6.33 ± 0.16 | 3.12 ± 0.29 | 6.95 ± 0.84 | 12 ± 0.99 | 5.94 ± 0.23 | 12.6 ± 0.25 | 6.27 ± 0.38 | 13.3 ± 1.2 |
| MAIERTFSIIKPNAVAKNVIGNIFARFEAAGFKIVGTKMLHLTVEQARGFYAEHDGKPFFDGLVEFMTSGPIVVSVLEGENAVQRHRDLLGATNPANALAGTLRADYADSLTENGTHGSDSVESAAREIAYFFGEGEVCPRTR [P0A763] |  | 3.93 ± 0.36 | 3.85 ± 0.32 | 4.39 ± 0.36 | 3.92 ± 0.15 | 3.09 ± 0.092 | 5.64 ± 0.11 | 9.324 ± 0.023 | 3.88 ± 0.28 | 6.19 ± 0.36 | 5 ± 0.82 | 10.6 ± 0.11 |
| MTNITLQKQHRTLWHFIPGLALSAVITGVALWGGSIPAVAGAGFSALTLAILLGMVLGNTIYPHIWKSCDGGVLFAKQYLLRLGIILYGFRLTFSQIADVGISGIIIDVLTLSSTFLLACFLGQKVFGLDKHTSWLIGAGSSICGAAAVLATEPVVKAEASKVTVAVATVVIFGTVAIFLYPAIYPLMSQWFSPETFGIYIGSTVHEVAQVVAAGHAISPDAENAAVISKMLRVMMLAPFLILLAARVKQLSGANSGEKSKITIPWFAILFIVVAIFNSFHLLPQSVVNMLVTLDTFLLAMAMAALGLTTHVSALKKAGAKPLLMALVLFAWLIVGGGAINYVIQSVIA |  | 2.86 |  |  |  |  |  |  |  |  |  |  |
| MTIYFINWVADYELKMIQYLKKKYKIKNITTPKKYNWINKKISKIGMDNAWLGRLFIKHYLNDIKKDDIIIINDSVVNKGINKQILKNINCHKVLLLRNTVGEDFILDNANYFDIIYDFEHRFIGNEKIKAIEQFFPIGMDEIRNYSLSDKNNSQPICFFLGRDKGRLQIINELAERLTTLGCKLDFNVVKDKTSSTTSKYLIEKQISYEENIRRTLNANIIVDITKENQSGWTLRILEALFFNKKLITNNINVFGSEIYSESRFFIIGHDDWDKLEYFINSSVKPMDYDSLYKFSPDKMMSTIVSDFIDK | 7.07 ± 1.2 |  | 5.4 ± 0.26 |  | 4.651 ± 0.02 | 2.87 ± 0.037 | 4.87 ± 0.59 | 9.41 ± 2.8 | 5.54 ± 0.49 | 10.8 ± 2.5 | 4.59 ± 0.58 | 10.1 ± 1 |
| MSDIALTVSILALVAVVGLFIGNVKFRGIGLGIGGVLFGGIIVGHFVSQAGMTLSSDMLHVIQEFGLILFVYTIGIQVGPGFFASLRVSGLRLNLFAVLIVIIGGLVTAILHKLFDIPLPVVLGIFSGAVTNTPALGAGQQILRDLGTPMEMVDQMGMSYAMAYPFGICGILFTMWMLRVIFRVNVETEAQQHESSRTNGGALIKTINIRVENPNLHDLAIKDVPILNGDKIICSRLKREETLKVPSPDTIIQLGDLLHLVGQPADLHNAQLVIGQEVDTSLSTKGTDLRVERVVVTNENVLGKRIRDLHFKERYDVVISRLNRAGVELVASGDISLQFGDILNLVGRPSAIDAVANVLGNAQQKLQQVQMLPVFIGIGLGVLLGSIPVFVPGFPAALKLGLAGGPLIMALILGRIGSIGKLYWFMPPSANLALRELGIVLFLSVVGLKSGGDFVNTLVNGEGLSWIGYGALITAVPLITVGILARMLAKMNYLTMCGMLAGSMTDPPALAFANNLHPTSGAAALSYATVYPLVMFLRIITPQLLAVLFWSIG |  | 5.7 ± 0.54 | 6.35 | 5.52 ± 0.89 | 6.03 ± 0.39 | 3.27 ± 0.38 | 5.33 ± 1.1 | 11.4 ± 1.6 | 5.98 ± 0.39 | 10.4 ± 0.3 | 5.7 ± 0.059 | 9.94 ± 1.5 |
| MRILLIEDDMLIGDGIKTGLSKMGFSVDWFTQGRQGKEALYSAPYDAVILDLTLPGMDGRDILREWREKGQREPVLILTARDALAERVEGLRLGADDYLCKPFALIEVAARLEALMRRTNGQASNELRHGNVMLDPGKRIATLAGEPLTLKPKEFALLELLMRNAGRVLSRKLIEEKLYTWDEEVTSNAVEVHVHHLRRKLGSDFIRTVHGIGYTLGEK | 4.652 ± 0.039 | 4.22 ± 0.3 | 4.1 ± 0.33 | 4.5 ± 0.27 | 4.06 ± 0.37 | 2.92 ± 0.042 | 5.51 ± 0.24 | 10.8 ± 1.9 | 4.2 ± 0.12 | 6.35 ± 0.32 | 5.267 ± 0.0074 | 11 ± 0.5 |
| MFKPHVTVACVVHAEGKFLVVEETINGKALWNQPAGHLEADETLVEAAARELWEETGISAQPQHFIRMHQWIAPDKTPFLRFLFAIELEQICPTQPHDSDIDCCRWVSAEEILQASNLRSPLVAESIRCYQSGQRYPLEMIGDFNWPFTKGVI [P0AEI6] | 4.74 ± 0.38 | 4.42 ± 0.56 | 4.45 | 4.69 ± 0.34 | 4.929 ± 0.049 |  | 5.3 ± 0.12 | 11.6 ± 1.9 | 4.54 ± 0.27 | 6.249 ± 0.042 | 5.49 ± 0.18 | 11.12 ± 0.055 |
| MKLRDSLAENKSIRLQAEAETWQEAVKIGVDLLVAADVVEPRYYQAILDGVEQFGPYFVIAPGLAMPHGRPEEGVKKTGFSLVTLKKPLEFNHDDNDPVDILITMAAVDANTHQEVGIMQIVNLFEDEENFDRLRACRTEQEVLDLIDRTNAAA |  |  |  |  | 3.07 | 3.32 ± 0.71 | 3.97 ± 0.22 | 7.31 | 3.02 |  | 4.94 ± 0.59 | 7.637 ± 0.049 |
